Experimental data reported in US6407221.
Each block holds one molecule with its values, some of them ahead of it.

Key:
Assay in all cases: cell-based or functional assay
[1] = target: Jurkat Ti β chain (human)
CD3 epsilon (human) = CD3 epsilon (human) (UniProt P07766)
native CD4 (human) = native CD4 (human) (UniProt P01730)
[2] = target: CD4-zeta chimeric receptor F3 (human) (UniProt P01730)
[3] = target: CD4-zeta chimeric receptor F2 (human) (UniProt P01730)
[4] = target: human HLA Class 1 antigens
wild-type CD8 protein = wild-type CD8 protein (UniProt P01732)
CD8/zeta chimera (human) = CD8/zeta chimera (human) (UniProt P01732)

Chain of UniProt P01732 (P01732 other isoform, or with tags, fused parts or gaps mutant): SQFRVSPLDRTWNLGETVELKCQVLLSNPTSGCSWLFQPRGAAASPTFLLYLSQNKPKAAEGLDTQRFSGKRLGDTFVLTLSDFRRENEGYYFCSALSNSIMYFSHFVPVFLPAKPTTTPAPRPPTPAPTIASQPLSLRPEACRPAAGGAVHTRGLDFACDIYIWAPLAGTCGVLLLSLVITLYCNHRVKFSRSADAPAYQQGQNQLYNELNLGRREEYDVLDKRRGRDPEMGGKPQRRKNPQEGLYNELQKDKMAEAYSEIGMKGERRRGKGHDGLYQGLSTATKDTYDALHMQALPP

IL-2 (Units/ml), JCD8/zeta 2, C305 + PMA, experiment #1 [1]: 3.7 Units/ml
IL-2 (Units/ml), JCD8/zeta 2, C305 + PMA, experiment #2 [1]: 2.1 Units/ml
IL-2 (Units/ml), Jurkat CD8, C305 + PMA, experiment #1 [1]: 13.5 Units/ml
IL-2 (Units/ml), Jurkat CD8, C305 + PMA, experiment #2 [1]: 9.1 Units/ml
internalization of the TCR after overnight incubation of JCD8/zeta 2 with saturating C305 [1]: 94%
Molecule: C305 (antibody)

IL2 produced relative to stimulation with Ionomycin, Jurkat clone CD4/1F7 (relative to Ionomycin = 100) (CD3 epsilon (human)): 38
IL2 produced relative to stimulation with Ionomycin, Jurkat clone CD4/4.1 (relative to Ionomycin = 100) (CD3 epsilon (human)): 65
IL2 produced relative to stimulation with Ionomycin, Jurkat clone F2/1A11 (relative to Ionomycin = 100) (CD3 epsilon (human)): 51
IL2 produced relative to stimulation with Ionomycin, Jurkat clone F2/1D1 (relative to Ionomycin = 100) (CD3 epsilon (human)): 59
IL2 produced relative to stimulation with Ionomycin, Jurkat clone F3/2.2 (relative to Ionomycin = 100) (CD3 epsilon (human)): 65
IL2 produced relative to stimulation with Ionomycin, Jurkat clone F3/2.7 (relative to Ionomycin = 100) (CD3 epsilon (human)): 92
absolute level of IL2 produced, Jurkat clone CD4/1F7 (CD3 epsilon (human)): 2100 pg/mL
absolute level of IL2 produced, Jurkat clone CD4/4.1 (CD3 epsilon (human)): 309 pg/mL
absolute level of IL2 produced, Jurkat clone F2/1A11 (CD3 epsilon (human)): 918 pg/mL
absolute level of IL2 produced, Jurkat clone F2/1D1 (CD3 epsilon (human)): 671 pg/mL
absolute level of IL2 produced, Jurkat clone F3/2.2 (CD3 epsilon (human)): 481 pg/mL
absolute level of IL2 produced, Jurkat clone F3/2.7 (CD3 epsilon (human)): 295 pg/mL
Molecule: OKT3 (antibody)

IL2 produced relative to stimulation with Ionomycin, Jurkat clone CD4/1F7 (relative to Ionomycin = 100) (native CD4 (human)): 0.3
IL2 produced relative to stimulation with Ionomycin, Jurkat clone CD4/4.1 (relative to Ionomycin = 100) (native CD4 (human)): 2
absolute level of IL2 produced, Jurkat clone CD4/1F7 (native CD4 (human)): 19 pg/mL
absolute level of IL2 produced, Jurkat clone CD4/4.1 (native CD4 (human)): 9 pg/mL
IL2 produced relative to stimulation with Ionomycin, Jurkat clone F3/2.2 (relative to Ionomycin = 100) [2]: 160
IL2 produced relative to stimulation with Ionomycin, Jurkat clone F3/2.7 (relative to Ionomycin = 100) [2]: 210
absolute level of IL2 produced, Jurkat clone F3/2.2 [2]: 1200 pg/mL
absolute level of IL2 produced, Jurkat clone F3/2.7 [2]: 671 pg/mL
IL2 produced relative to stimulation with Ionomycin, Jurkat clone F2/1A11 (relative to Ionomycin = 100) [3]: 86
IL2 produced relative to stimulation with Ionomycin, Jurkat clone F2/1D1 (relative to Ionomycin = 100) [3]: 60
absolute level of IL2 produced, Jurkat clone F2/1A11 [3]: 543 pg/mL
absolute level of IL2 produced, Jurkat clone F2/1D1 [3]: 683 pg/mL
Molecule: OKT4A (antibody)

IL2 produced relative to stimulation with Ionomycin, Jurkat clone CD4/1F7 (relative to Ionomycin = 100) [4]: 0.1
IL2 produced relative to stimulation with Ionomycin, Jurkat clone CD4/4.1 (relative to Ionomycin = 100) [4]: 0.7
IL2 produced relative to stimulation with Ionomycin, Jurkat clone F2/1A11 (relative to Ionomycin = 100) [4]: 10
IL2 produced relative to stimulation with Ionomycin, Jurkat clone F2/1D1 (relative to Ionomycin = 100) [4]: 11
IL2 produced relative to stimulation with Ionomycin, Jurkat clone F3/2.2 (relative to Ionomycin = 100) [4]: 3
IL-2 (Units/ml), JCD8/zeta 2, W6/32 + PMA, experiment #1 [4]: < 0.1 Units/ml
IL-2 (Units/ml), JCD8/zeta 2, W6/32 + PMA, experiment #2 [4]: < 0.1 Units/ml
IL-2 (Units/ml), Jurkat CD8, W6/32 + PMA, experiment #1 [4]: < 0.1 Units/ml
IL-2 (Units/ml), Jurkat CD8, W6/32 + PMA, experiment #2 [4]: < 0.1 Units/ml
absolute level of IL2 produced, Jurkat clone CD4/1F7 [4]: 3 pg/mL
absolute level of IL2 produced, Jurkat clone CD4/4.1 [4]: 3 pg/mL
absolute level of IL2 produced, Jurkat clone F2/1A11 [4]: 104 pg/mL
absolute level of IL2 produced, Jurkat clone F2/1D1 [4]: 123 pg/mL
absolute level of IL2 produced, Jurkat clone F3/2.2 [4]: 19 pg/mL
absolute level of IL2 produced, Jurkat clone F3/2.7 [4]: 0 pg/mL
Molecule: W6/32 (antibody)

IL-2 (Units/ml), Jurkat CD8, OKT8 + PMA, experiment #1 (wild-type CD8 protein): < 0.1 Units/ml
IL-2 (Units/ml), Jurkat CD8, OKT8 + PMA, experiment #2 (wild-type CD8 protein): < 0.1 Units/ml
IL-2 (Units/ml), JCD8/zeta 2, OKT8 + PMA, experiment #1 (CD8/zeta chimera (human)): 6.8 Units/ml
IL-2 (Units/ml), JCD8/zeta 2, OKT8 + PMA, experiment #2 (CD8/zeta chimera (human)): 7 Units/ml
B1: OKT8 (antibody, from another filing, V domains shown)
VH: EVQLQQSGAELVKPGASVKLSCTASGFNIKDTYIHFVRQRPEQGLEWIGRIDPANDNTLYASKFQGKATITADTSSNTAYMHLCSLTSGDTAVYYCGRGYGYYVFDHWGQGTTLTVSS
VL: DVQINQSPSFLAASPGETITINCRTSRSISQYLAWYQEKPGKTNKLLIYSGSTLQSGIPSRFSGSGSGTDFTLTISGLEPEDFAMYYCQQHNENPLTFGAGTKLELK
